In US20210253643A1 (UNIVERSITY OF BRITISH COLUMBIA, published 2021):

Target: T1, FhuA (E. coli, UniProt P06971 34-747)
T1 construct: also called FhuA receptor; FhuA transporter
T1 sequence (looked up): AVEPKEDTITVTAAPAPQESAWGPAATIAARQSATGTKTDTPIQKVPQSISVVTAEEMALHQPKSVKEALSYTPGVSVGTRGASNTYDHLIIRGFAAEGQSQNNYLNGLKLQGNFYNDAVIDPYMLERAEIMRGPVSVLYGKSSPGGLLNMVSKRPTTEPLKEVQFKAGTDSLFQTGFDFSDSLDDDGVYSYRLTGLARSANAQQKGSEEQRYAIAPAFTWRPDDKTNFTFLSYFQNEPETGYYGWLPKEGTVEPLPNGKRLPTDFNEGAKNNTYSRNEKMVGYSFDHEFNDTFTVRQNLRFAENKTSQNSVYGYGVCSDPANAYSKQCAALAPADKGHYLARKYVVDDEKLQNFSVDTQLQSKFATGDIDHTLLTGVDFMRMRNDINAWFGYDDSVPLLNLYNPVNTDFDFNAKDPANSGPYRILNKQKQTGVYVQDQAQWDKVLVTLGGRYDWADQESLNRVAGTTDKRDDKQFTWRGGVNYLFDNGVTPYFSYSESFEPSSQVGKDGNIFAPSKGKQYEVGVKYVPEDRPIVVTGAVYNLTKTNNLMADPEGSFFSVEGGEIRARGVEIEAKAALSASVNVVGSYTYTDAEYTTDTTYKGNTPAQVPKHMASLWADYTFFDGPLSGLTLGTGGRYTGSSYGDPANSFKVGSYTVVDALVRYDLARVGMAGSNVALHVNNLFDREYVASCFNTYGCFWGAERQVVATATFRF
Assay: CN-PAGE band shift, Coomassie: about 2 µg FhuA in MSPL156 nanodisc with 5 µg colicin M, 5 min at room temperature, without and with ferricrocin

B1: Colicin M (other)
chain: METLTVHAPSPSTNLPSYGNGAFSLSAPHVPGAGPLLVQVVYSFFQSPNMCLQALTQLEDYIKKHGASNPLTLQIISTNIGYFCNADRNLVLHPGISVYDAYHFAKPAPSQYDYRSMNMKQMSGNVTTPIVALAHYLWGNGAERSVNIANIGLKISPMKINQIKDIIKSGVVGTFPVSTKFTHATGDYNVITGAYLGNITLKTEGTLTISANGSWTYNGVVRSYDDKYDFNASTHRGIIGESLTRLGAMFSGKEYQILLPGEIHIKESGKR
notes: also called ColM; His-tagged Colicin M
**Q.** Does B1 bind?
**A.** Result: binds
